The record followed here is the DeepSol protein solubility set.

The data set is described as follows: soluble on expression in E. coli; label from the status in PepcDB or PDB records.
On to “MGSDKIHHHHHHMKIEINPVSRIEGHAKVTIFLDSSGKVENAFFQATEFRGYEKILSGLPMEEVPRVVSTICGICRAIHFTAALKAADQVFGVEASDAAKIVREMLLCAHFIEDHTLSLLALALPDFLSPEERNIFGVIRNLGELGRELLRKRGYAVRILQILGGRNIHPVTALPGGWAKAPTDEELGLIERYSRELLDLGYRMVEVLEAALDMGDGLELRAATLGTEKKGLVNLYDGEQVVKDEEGKEVLRFSGKEYADIITEKSLSWSYSKLTEIKPLGEKLYVVGPLARLKTAELTPKASEIVKTYGVSNNLLYNHFARAVEIIYAAERLLELSQSYRGGRIQNEPQKVAGEGVGIVEAPRGTLIHHYWTDEKGIVRGSNLIVATTHNVRAINHVVGKVAERASDTRNLAEKVEVAIRAFDPCMACATHAVNGVIPIEIQIFRDGELEEVYRNYEESCCGSGQSTHS”, for which the “soluble on expression in E. coli” value is recorded as “not soluble”. For “AMGSVTVHSSEPEVRIPENNPVKLSCAYSGFSSPRVEWKFDQGDTTRLVCYNNKITASYEDRVTFLPTGITFKSVTREDTGTYTCMVSEEGGNSYGEVKVKLIVLVPPSKPTVNIPSSATIGNRAVLTCSEQDGSPPSEYTWFKDGIVMPTNPKSTRAFSNSSYVLNPTTGELVFDPLSASDTGEYSCEARNGYGTPMTSNAVRMEAVE”, the “soluble on expression in E. coli” value is “soluble”. Turning to “MQLLTEKDRPEEEKREETWRRLKRDIASSANTIHEIDTGKARGYNRALFVSSIFNKVSTFAGHGDVEIVQKAIDFISEYNAGIKKPVITPRHRFFQLAETASRMRDKLKETQELENREVTFEGGILVWNYQESRLQVFFNKIPEESKRRELKSSGFHWSPRNRAWQRQLNPNAVSAAKRILNL”, the “soluble on expression in E. coli” value is listed as “not soluble”. The value for “MVAQQKNLEGYVGFANLPNQVYRKSVKRGFEFTLMVVGESGLGKSTLINSLFLTDLYSPEYPGPSHRIKKTVQVEQSKVLIKEGGVQLLLTIVDTPGFGDAVDNSNCWQPVIDYIDSKFEDYLNAESRVNRRQMPDNRVQCCLYFIAPSGHGLKPLDIEFMKRLHEKVNIIPLIAKADTLTPEECQQFKKQIMKEIQEHKIKIYEFPETDDEEENKLVKKIKDRLPLAVVGSNTIIEVNGKRVRGRQYPWGVAEVENGEHCDFTILRNMLIRTHMQDLKDVTNNVHYENYRSRKLAAVTYNGVDNNKNKGQLTKSPLAQMEEERREHVAKMKKMEMEMEQVFEMKVKEKVQKLKDSEAELQRRHEQMKKNLEAQHKELEEKRRQFEDEKANWEAQQRILEQQNSSRTLEKNKKKGKIF” was “soluble”; that for “VCEKGFEAGDNKLGGALNAKHVEKYGDNFKNGMHKPEFHEDGLHKPMEVGGKKFESGFHYLLECHELGGKNASGGYGGPLCEDPYGSEVQAMTEKLLKEADSDRTLCFNNFQDPCPQLTKEQVAMCKGFDYGDKTLKLPCGPLPWPAGLPEPGYVPKTNPLHGRWITVSGGQAAFIKEAIKSGMLGAAEANKIVADTDHHQTGGMYLRINQFGDVCTVDASVAKFARAKRTWKSGHYFYEPLVSGGNLLGVWVLPEEYRKIGFFWEMESGRCFRIERRAFPVGPYTFMRQATEVGGKISFVFYVKVSNDPESDPIPLQSRDYTALAGRDNAPTNLGKPYPTLAKDLDYPKKRDGWLEKNEKEMLRQRNIVSSTF” was “soluble”.

With “MGSDKIHHHHHHMDFSDEKMPFLADAVDRVRVEECFRQCLVIAQNFRVQNIRVIRHKLGRRCLIEYELMDDVGEIITLIGKVRAKGTDFHSYELQKSLWESGFADDSADGISVPEPVGIIPEWQMWLQRRVEGVTATQILSQTNGIFPAKLIAEAAYKLHQANIIPRRSHRMSDELRILHERIPLVMEQYPQWQRRLERILLASDDLGANTPELKLCGIHRDFYPDQVIMNNSRLYLLDLDLYCAGNPAVDIGNFIAHLQEYSLRTVGNPQALQEYEDILKTRFLQLTGDEFSLAIQAYTILTLVRHIYISTLFPERRPFTAALLHLCEQRLNITHNS”, the “soluble on expression in E. coli” value is “not soluble”. For “MGSDKIHHHHHHMTKILIVLSEWGYWGEELVGPLETFDAAGYQVDFATPNGKRPVALGVSMDPTFVDPPLGRPVTTQDMADKVRQLDDTNNPRLNNPKNLREWLPERPYWSSPKFLREMEEYYRLLDEVRQRDLQTYDAILIVGGSGPMVDLADNQRVHDLILSFYQMGKPVAAECYGVACLAFARDIGDRKSIIWGKHVTGHCLEYDYKDGTGFNGTNIDPCLNNINFGTPFYPLEYILRDATGPDGQYHGNVGRPTSVIVDYPFITGRSTPDSYLTGQKLVEVLEKGLKRYGW”, the “soluble on expression in E. coli” value is listed as “not soluble”. The value for “MQLEIKGKTHNVKFGTRFVAEMDKNHIAERQGFKFGAGLQSSVPFLIDHSVVTLAEVIYTGTITEPPRPSLNDIYDYIDEVEDIEKLFDDVLDELRQSNASKLFMAQVEKDLAEAKA” was “not soluble”; that for “MKLERILPFSKTLIKQHITPESIVVDATCGNGNDTLFLAEQVPEGHVYGFDIQDLALENTRDKVKDFNHVSLIKDGHENIEHHINDAHKGHIDAAIFNLGYLPKGDKSIVTKPDTTIQAINSLLSLMSIEGIIVLVIYHGHSEGQIEKHALLDYLSTLDQKHAQVLQYQFLNQRNHAPFICAIEKIS” was “not soluble”. For the sequence “MSPKSVVITGANRGIGLGLVQEFVKDKNIRHIIATARDVEKATDLKAISDPRVTALQLEVTCDKSMDTFVSKVEEIVGSDGLNLLVNNAGNAVDYPCKAKPNRALFAEQLNVNTTSVVILTQKLMPLLIKASSKVSGDQLSASRAAVVTISSGLASMTDFATGGHAPNAFAYRISKAAINMFGRALANDMKDDHILVASIGPGWVKTDMGGEKALLTVEQSTAELVASFNKLNNSHNGGFFQKDLTPYPF”, the “soluble on expression in E. coli” value was “not soluble”. With “MTRNAPPGQESTDLAWLVTPAKDLVENFSIDVLKALAGYLEVIRQESEDTDNQVDAATTYRLFDFQRACRIIQGSCAVYGRKVDHVYELTISVVDLVENKGQDDGNTGSRRGAGRRKNFNLGSTNYDLADIDSLKQEALANFEKTVKEEKKSIDAVRMVENAEVIESQYERKSCLVAKPTQFMFKLNYGQLNRTDEQILNAKSRPDVIGKVKDFEIKKSKVKHDQQILYSHDCYRGNLDQFTLPGARWMPDNKELAANFGVADLEVELDLEQEHEKISAYGPFKDPLSGREVVPPPRWFIEQEAVRQNQEIQSRATSRAITIAAKTLRDSQGFGSQPTRLSQPFVERHRQSNHLNDFLSFVEGRVNKNRPSTHLTTGLVDMFVDNFGSVMQNDEPNTSRRPDENYAPMDFDDDFGGGGDDDDDDYIRNLSRRDEKRAPAPWDELDKNHIIWYTGDENLPVVSKPVKKITKFQPKPAEMLARKQRREEKINKSRRDEFMETHDYLQDYYYWRSAARINPIKDWKIESLRTAILAEKKRRIKEKTAKIREARIQNMQRKRTARVIPVEQFEPVTEDIPTSNRRTLGAEYDDVVDEDLAAEVELSMFGGGFDDDEEDVRPRGERPPMAPNNLEFDALQTDFDIPPAEYVPLRFEDIDDAELNSVINLPGNLLIDKALPLLKKFAENRTDREQMAYEMAKAYEDVDVAVSTLQEHVDKWHSRMEPILEEGETRKEYDVHAVGRAVIGQYDIEGGTKRLLDLVMDRPWYEISRYFLSCLFMCNVGNVMVSEDMELPLEERINSMKITLLKRDMHCEMFKEAGALDA” the entry was “not soluble”.

Turning to “SHMALRIIPCLDIDGGAKVVVKGVNFQGIREVGDPVEMAVRYEEEGADEIAILDITAAPEGRATFIDSVKRVAEAVSIPVLVGGGVRSLEDATTLFRAGADKVSVNTAAVRNPQLVALLAREFGSQSTVVAIDAKWNGEYYEVYVKGGREATGLDAVKWAKEVEELGAGEILLTSIDRDGTGLGYDVELIRRVADSVRIPVIASGGAGRVEHFYEAAAAGADAVLAASLFHFRVLSIAQVKRYLKERGVEVRI”, the “soluble on expression in E. coli” value was “soluble”. In the case of “MGSDKIHHHHHHMNINPTEKLSQPIVEKVAIVGAGPGGLAAAIALRSQGIDVQIYEKAQEFRPAGTGLGLAPNGLNFLDAIAPGIVETLKGSGCEVHHTVLKNFRGETIRANASKYQEKYGQPLVTVWWYRLQQVLASRLPSDIVHLNHRCIGFEQDENGVEIRFDGEKSVYADLLIGADGVNSVIREILFGEGKPNYIGSMCWRAVIKYHHELFNDYELVFVKGNQQFMYLLNVGGGYMSWISRKFSPEYSLCHSADEVKSRILHELADWDESFQVVVQATPAEQIWEGPICDRPPLTHWSQGRVTLLGDAAHPMAPAMGQGANTTFEDAYELRECFSQSANLQEALTSYEQRRMQRTEIIQARSALGEMRYYESNTVASNGQREQTMSVNDDFHKWLYDYKPSATIKF”, the “soluble on expression in E. coli” value is given as “not soluble”. The value for “MGSDKIHHHHHHMDKLDFRSQDFSQTGKAMYELACELFPIPRSITGQGFRDSLEILNKTLGGGILKFHSIKSGTKVFDWIVPDEWNVKEAYIITPKGEKICDFKKHNLHLLNYSEAIDQEIELEELQDHLYSIEEMPDAIPYVTSYYKRRWGFCLTHNERKKLKKGKYKVYIDAKHDENGVLDYADFILPSTQNSKDEILISTYLCHPSMANNELSGPVVSIFLAKWLLGLKERRYNYRFVIIPETIGSIVYLSKHLECLKKHVKAGFVLSCLGDDHTYSLIHTVKENTLSDKVALHTLKNKENFKAFSFLDRGSDERQYNAPLVNLGIVGVCRTRYGDYDGYHNSKDDLNFISEKGLMGGLQSMQEMILNLEINAVYENTIVCEPNLGKRGLYHTLSTTNDIPLACNFLAYCDGENDIIDIANILNMQAYEFKELLEKIKFYGLVK” was “not soluble”; that for “MGHIIDISKWNGDINWSIAKQHIDFIIARVQDGSNYVDPLYKGYVQAMKQHGIPFGNYAFCRFVSIADAKKEAQDFWNRGDKSATVWVADVEVKTMNDMRAGTQAFIDELYRLGAKKVGLYVGHHMYTPFGMANVKSDFVWIPRYGGNKPAYPCDIWQYTETGNVPGIGKCDLNSLIGNKSLSWFTESATQESVQAPTQNIIQSGAFSPYETPDVTGALTSLKMTAKFILKPDGLTYFISDPTSDAQLNAMKEYLDRKGWWYEVK” was “not soluble”. With “MDIPQDSYDLVVVGGGTSGVFAAISAARRGLRVALVEASGMLGGTLTQVTLGGICGAWTGTAHTQVVHGLFDEFVHAMRKAQACDGLYSYGHVTALPYEPVKVRYLLDQLLPPNVTTFFHSRLFAVDMEGERIARVHLAGVEGPFSLAARAYVDATGNASLAGLCATPLRRGENGTVQAASSMFRVIGADVDPRVRDVRTEIRLAIEKHNASGQAEAFKRSAVAVYVHPDQRLLHFNATRVYFESTADDALAAALDMSRVETEARKEAFRLVELLKREVDGFANIEIVDLGSSVGVRDSRNIVNDHPLTEAMVRDGDKPANSVAYSAWPIEFHGSNTQTHWEPLEGDRYYGIPYESCLPQGIQNALVIGRAISSTPLAQASCRVTAPCIQMGESAGIAAHELVASSSRTAFSELASMKFILEHHHHHH” the entry was “not soluble”; with “MNPIVVLGSKVVDGQVTGLLASRLEKAIEVSSLTPEAPVVVSGFGEAAAMADYLRARGVTTIVEEPWATSTNENLENAHALFPDTLQWTVVTSGFHAWRTYLWAWHLGIPIKVVTARTPSAERLGMAMRECFALPHSTLRVLWRKIRTPKNLEHHHHHH”, “soluble”.

Consider “MIDQTALATEIKRLIKAAGPMPVWRYMELCLGHPEHGYYVTRDPLGREGDFTTSPEISQMFGELLGLWSASVWKAADEPQTLRLIEIGPGRGTMMADALRALRVLPILYQSLSVHLVEINPVLRQKQQTLLAGIRNIHWHDSFEDVPEGPAVILANEYFDVLPIHQAIKRETGWHERVIEIGASGELVFGVAADPIPGFEALLPPLARLSPPGAVFEWRPDTEILKIASRVRDQGGAALIIDYGHLRSDVGDTFQAIASHSYADPLQHPGRADLTAHVDFDALGRAAESIGARAHGPVTQGAFLKRLGIETRALSLMAKATPQVSEDIAGALQRLTGEGRGAMGSMFKVIGVSDPKIETLVALSDDTDREAERRQGTHGLEHHHHHH”, for which the “soluble on expression in E. coli” value is “soluble”.
